According to ChEMBL document CHEMBL1143427, “Interactions of ceftobiprole with beta-lactamases from molecular classes A to D” (Antimicrob Agents Chemother, 2007):

Legend:
[1] = substrate: CC1(C)S[C@@H]2[C@H](NC(=O)Cc3ccccc3)C(=O)N2[C@H]1C(=O)O; test: (§1) Activity of Staphylococcus aureus betalactamase PC1 assessed as drug hydrolysis by spectrophotometry
[2] = substrate: CC(C)(O/N=C(\C(=O)N[C@@H]1C(=O)N2C(C(=O)[O-])=C(C[n+]3ccccc3)CS[C@H]12)c1csc(N)n1)C(=O)O; test: as §1
[3] = substrate: O=C(Cc1cccs1)N[C@@H]1C(=O)N2C(C(=O)[O-])=C(C[n+]3ccccc3)CS[C@H]12; test: as §1
[4] = substrate: CO/N=C(\C(=O)N[C@@H]1C(=O)N2C(C(=O)[O-])=C(C[N+]3(C)CCCC3)CS[C@H]12)c1csc(N)n1; test: as §1
[5] = substrate: Nc1nc(/C(=N/O)C(=O)N[C@@H]2C(=O)N3C(C(=O)O)=C(/C=C4\CCN([C@@H]5CCNC5)C4=O)CS[C@H]23)ns1; test: as §1
[6] = substrate: CC1(C)S[C@@H]2[C@H](NC(=O)Cc3ccccc3)C(=O)N2[C@H]1C(=O)O; test: (§2) Ratio of Kcat to Km of Staphylococcus aureus betalactamase PC1 assessed as drug hydrolysis by spectrophotometry
[7] = substrate: CC(C)(O/N=C(\C(=O)N[C@@H]1C(=O)N2C(C(=O)[O-])=C(C[n+]3ccccc3)CS[C@H]12)c1csc(N)n1)C(=O)O; test: as §2
[8] = substrate: O=C(Cc1cccs1)N[C@@H]1C(=O)N2C(C(=O)[O-])=C(C[n+]3ccccc3)CS[C@H]12; test: as §2
[9] = substrate: CO/N=C(\C(=O)N[C@@H]1C(=O)N2C(C(=O)[O-])=C(C[N+]3(C)CCCC3)CS[C@H]12)c1csc(N)n1; test: as §2
[10] = substrate: Nc1nc(/C(=N/O)C(=O)N[C@@H]2C(=O)N3C(C(=O)O)=C(/C=C4\CCN([C@@H]5CCNC5)C4=O)CS[C@H]23)ns1; test: as §2
[11] = substrate: CC1(C)S[C@@H]2[C@H](NC(=O)Cc3ccccc3)C(=O)N2[C@H]1C(=O)O; test: (§3) Activity of Klebsiella pneumoniae SHV1 assessed as drug hydrolysis by spectrophotometry
[12] = substrate: O=C(Cc1cccs1)N[C@@H]1C(=O)N2C(C(=O)[O-])=C(C[n+]3ccccc3)CS[C@H]12; test: as §3
[13] = substrate: CO/N=C(\C(=O)N[C@@H]1C(=O)N2C(C(=O)[O-])=C(C[N+]3(C)CCCC3)CS[C@H]12)c1csc(N)n1; test: as §3
[14] = substrate: Nc1nc(/C(=N/O)C(=O)N[C@@H]2C(=O)N3C(C(=O)O)=C(/C=C4\CCN([C@@H]5CCNC5)C4=O)CS[C@H]23)ns1; test: as §3
[15] = substrate: CC1(C)S[C@@H]2[C@H](NC(=O)Cc3ccccc3)C(=O)N2[C@H]1C(=O)O; test: (§4) Ratio of Kcat to Km of Klebsiella pneumoniae SHV1 assessed as drug hydrolysis by spectrophotometry
[16] = substrate: O=C(Cc1cccs1)N[C@@H]1C(=O)N2C(C(=O)[O-])=C(C[n+]3ccccc3)CS[C@H]12; test: as §4
[17] = substrate: CO/N=C(\C(=O)N[C@@H]1C(=O)N2C(C(=O)[O-])=C(C[N+]3(C)CCCC3)CS[C@H]12)c1csc(N)n1; test: as §4
[18] = substrate: Nc1nc(/C(=N/O)C(=O)N[C@@H]2C(=O)N3C(C(=O)O)=C(/C=C4\CCN([C@@H]5CCNC5)C4=O)CS[C@H]23)ns1; test: as §4

B1: Beta-lactamase (Staphylococcus aureus), P00807 (protein)
chain: MKKLIFLIVIALVLSACNSNSSHAKELNDLEKKYNAHIGVYALDTKSGKEVKFNSDKRFAYASTSKAINSAILLEQVPYNKLNKKVHINKDDIVAYSPILEKYVGKDITLKALIEASMTYSDNTANNKIIKEIGGIKKVKQRLKELGDKVTNPVRYEIELNYYSPKSKKDTSTPAAFGKTLNKLIANGKLSKENKKFLLDLMLNNKSGDTLIKDGVPKDYKVADKSGQAITYASRNDVAFVYPKGQSEPIVLVIFTNKDNKSDKPNDKLISETAKSVMKEF
- Km [1]: 3.4 µM
- kcat [1]: 65 s⁻¹
- Km [2]: 29 µM
- kcat [2]: 0.00035 s⁻¹
- Km [3]: 110 µM
- kcat [3]: 0.14 s⁻¹
- Km [4]: 61 µM
- kcat [4]: 0.002 s⁻¹
- Km [5]: 78 µM
- kcat [5]: 0.024 s⁻¹
- kcat/Km [6]: 1.9e+07 M⁻¹ s⁻¹
- kcat/Km [7]: 12 M⁻¹ s⁻¹
- kcat/Km [8]: 1300 M⁻¹ s⁻¹
- kcat/Km [9]: 33 M⁻¹ s⁻¹
- kcat/Km [10]: 310 M⁻¹ s⁻¹

B2: Beta-lactamase SHV-1 (Klebsiella pneumoniae), P0AD64 (protein)
chain: MRYIRLCIISLLATLPLAVHASPQPLEQIKLSESQLSGRVGMIEMDLASGRTLTAWRADERFPMMSTFKVVLCGAVLARVDAGDEQLERKIHYRQQDLVDYSPVSEKHLADGMTVGELCAAAITMSDNSAANLLLATVGGPAGLTAFLRQIGDNVTRLDRWETELNEALPGDARDTTTPASMAATLRKLLTSQRLSARSQRQLLQWMVDDRVAGPLIRSVLPAGWFIADKTGAGERGARGIVALLGPNNKAERIVVIYLRDTPASMAERNQQIAGIGAALIEHWQR
- Km [11]: 16 µM
- kcat [11]: 1300 s⁻¹
- Km [12]: 160 µM
- kcat [12]: 500 s⁻¹
- Km [13]: 81 µM
- kcat [13]: 2.1 s⁻¹
- Km [14]: 130 µM
- kcat [14]: 30 s⁻¹
- kcat/Km [15]: 8.1e+07 M⁻¹ s⁻¹
- kcat/Km [16]: 3.1e+06 M⁻¹ s⁻¹
- kcat/Km [17]: 25000 M⁻¹ s⁻¹
- kcat/Km [18]: 230000 M⁻¹ s⁻¹
